PMC9930174 (2022)
Blank lines part the entries; values can stand above or below the binder they belong to.

Assays:
[1] = molecular target: T1, α-myosin (MYH6) peptide on H-2Kb (mouse); test: activation reporter or marker
T1 peptide: VQQVYYSI

[2] = molecular target: T2, α-myosin (MYH6) peptide on HLA-A*03:01 (human); test: multimer staining
T2 peptide: RINATLETK

[3] = molecular target: T3, α-myosin (MYH6) peptide on HLA-A*24:02 (human); test: multimer staining
T3 peptide: RINATLETK

[4] = molecular target: T4, α-myosin (MYH6) peptide on H-2Kb (mouse); test: activation reporter or marker
T4 peptide: VIQYFASI

binding result [1]: recognises
B1: TCR-C (TCR)
alpha TRAV6D-6 TRAJ39 CDR3: CALGDRNNAGAKLTF
beta TRBV12-2 TRBJ2-5 CDR3: CASSLGGTVQDTQYF

binding result [2]: recognises
binding result [3]: no recognition
B2: TCR-Pt1 (TCR)
alpha TRAV19 TRAJ32 CDR3: CALSDRYGGATNKLIF
beta TRBV9 TRBJ2-6 CDR3: CASSPYQSSGANVLTF

binding result [4]: recognises
B3: TCR-B (TCR)
alpha TRAV13-1 TRAJ22 CDR3: CALERASGSWQLIF
beta TRBV15 TRBJ2-7 CDR3: CASSLRRGEQYF
